In publication PMC9722916 one finds stoichiometry N data, which are given here for one molecule.

This assay addresses T1, rat TRPV2, C-terminally fused to GFP and a His8-tag (rat), Q9WUD2.
T1 chain: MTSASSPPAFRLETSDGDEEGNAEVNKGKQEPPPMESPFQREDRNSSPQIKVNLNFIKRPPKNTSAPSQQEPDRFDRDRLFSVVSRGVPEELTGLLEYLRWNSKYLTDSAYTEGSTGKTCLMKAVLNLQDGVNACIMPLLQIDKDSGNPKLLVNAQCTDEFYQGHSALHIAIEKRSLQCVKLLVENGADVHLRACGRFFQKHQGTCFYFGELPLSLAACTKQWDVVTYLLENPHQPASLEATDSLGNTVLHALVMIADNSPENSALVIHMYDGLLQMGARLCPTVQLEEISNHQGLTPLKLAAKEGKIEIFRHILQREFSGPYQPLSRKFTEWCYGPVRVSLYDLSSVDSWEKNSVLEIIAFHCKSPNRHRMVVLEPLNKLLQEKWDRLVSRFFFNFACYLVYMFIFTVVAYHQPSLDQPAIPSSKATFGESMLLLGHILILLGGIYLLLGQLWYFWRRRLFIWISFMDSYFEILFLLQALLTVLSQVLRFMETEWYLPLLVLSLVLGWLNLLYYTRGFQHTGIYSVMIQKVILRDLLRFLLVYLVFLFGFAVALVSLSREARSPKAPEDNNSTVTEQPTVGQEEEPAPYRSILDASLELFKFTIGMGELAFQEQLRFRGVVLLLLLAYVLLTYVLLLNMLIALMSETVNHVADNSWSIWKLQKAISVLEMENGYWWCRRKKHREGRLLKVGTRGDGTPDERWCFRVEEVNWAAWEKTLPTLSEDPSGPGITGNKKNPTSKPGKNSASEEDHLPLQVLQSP
Briefly: cryo-EM structure; purified rat TRPV2 in GDN (20 mM Tris 8.0, 150 mM NaCl, 0.4 mg/ml GDN), incubated with C16 (50 uM) and probenecid (2 mM), alone or in combination, at room temperature for 15 min; C4 symmetry (C16 and probenecid structures), C1 symmetry (C16+probenecid structures). Conditions: remark: other sources report otherwise.

B1: rat TRPV2, C-terminally fused to GFP and a His8-tag, Q9WUD2 1-761 (natural protein)
chain: MTSASSPPAFRLETSDGDEEGNAEVNKGKQEPPPMESPFQREDRNSSPQIKVNLNFIKRPPKNTSAPSQQEPDRFDRDRLFSVVSRGVPEELTGLLEYLRWNSKYLTDSAYTEGSTGKTCLMKAVLNLQDGVNACIMPLLQIDKDSGNPKLLVNAQCTDEFYQGHSALHIAIEKRSLQCVKLLVENGADVHLRACGRFFQKHQGTCFYFGELPLSLAACTKQWDVVTYLLENPHQPASLEATDSLGNTVLHALVMIADNSPENSALVIHMYDGLLQMGARLCPTVQLEEISNHQGLTPLKLAAKEGKIEIFRHILQREFSGPYQPLSRKFTEWCYGPVRVSLYDLSSVDSWEKNSVLEIIAFHCKSPNRHRMVVLEPLNKLLQEKWDRLVSRFFFNFACYLVYMFIFTVVAYHQPSLDQPAIPSSKATFGESMLLLGHILILLGGIYLLLGQLWYFWRRRLFIWISFMDSYFEILFLLQALLTVLSQVLRFMETEWYLPLLVLSLVLGWLNLLYYTRGFQHTGIYSVMIQKVILRDLLRFLLVYLVFLFGFAVALVSLSREARSPKAPEDNNSTVTEQPTVGQEEEPAPYRSILDASLELFKFTIGMGELAFQEQLRFRGVVLLLLLAYVLLTYVLLLNMLIALMSETVNHVADNSWSIWKLQKAISVLEMENGYWWCRRKKHREGRLLKVGTRGDGTPDERWCFRVEEVNWAAWEKTLPTLSEDPSGPGITGNKKNPTSKPGKNSASEEDHLPLQVLQSP
For orientation: stoichiometry N means the number of molecules, sites or subunits per partner or assembly. For the molecule B1, the stoichiometry N came to 4.
